For one assay, the target named is T1, GalacTag7_fHbp (Neisseria meningitidis serogroup B / …, UniProt E6MV22 32-274).
T1 construct: Fusion of a GBS BP-2a tag peptide with N. meningitidis fHbp variant 1.1
T1 sequence: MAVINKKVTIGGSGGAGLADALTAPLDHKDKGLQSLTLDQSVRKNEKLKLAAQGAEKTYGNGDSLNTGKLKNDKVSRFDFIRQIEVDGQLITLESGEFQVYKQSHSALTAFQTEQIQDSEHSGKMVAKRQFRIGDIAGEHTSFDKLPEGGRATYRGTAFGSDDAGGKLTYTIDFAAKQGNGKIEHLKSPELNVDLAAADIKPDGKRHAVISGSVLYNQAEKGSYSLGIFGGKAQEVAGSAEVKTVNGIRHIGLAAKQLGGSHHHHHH
The assay can be described thus: mixed in vitro at room temperature ~16 h, SDS-PAGE.

Assay [1] addresses T2, GalacTag6_GBSFerritinLMG14747.
T2 construct: Self-assembled ferritin nanoparticle displaying GalacTag6; also called GalacTag6 + Ferritin NP Subunit: LMG_14747
T2 chain: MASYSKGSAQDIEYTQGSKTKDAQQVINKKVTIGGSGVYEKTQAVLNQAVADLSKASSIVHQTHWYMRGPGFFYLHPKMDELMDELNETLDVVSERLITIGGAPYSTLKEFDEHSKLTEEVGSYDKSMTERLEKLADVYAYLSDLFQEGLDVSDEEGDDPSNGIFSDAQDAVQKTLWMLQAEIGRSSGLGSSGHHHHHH
The assay can be described thus: SDS-PAGE and HPLC-SEC (FIG. 4).

The target of assay [2] is T3, GalacTag6_fHbp.
T3 construct: Fusion of a GBS BP-2a tag peptide with N. meningitidis fHbp variant 1.1; also called GalacTag6_ffibp; wt GalacTag
T3 chain: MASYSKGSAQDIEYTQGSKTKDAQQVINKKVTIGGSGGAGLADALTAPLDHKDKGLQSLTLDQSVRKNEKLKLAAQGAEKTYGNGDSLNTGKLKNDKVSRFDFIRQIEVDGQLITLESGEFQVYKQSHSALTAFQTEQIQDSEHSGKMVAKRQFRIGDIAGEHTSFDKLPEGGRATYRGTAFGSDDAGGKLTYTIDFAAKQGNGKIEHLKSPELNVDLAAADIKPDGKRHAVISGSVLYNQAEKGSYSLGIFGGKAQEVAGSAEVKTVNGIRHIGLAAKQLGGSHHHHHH
The experiment in a line: 1:1 molar mix, room temperature ~16 h, SDS-PAGE.
Procedure: (§1) Each GalacDock/GalacTag pair was mixed in vitro at a 1:1 molar ratio at room temperature for approximately 16 hours, and samples were then subjected to SDS-PAGE electrophoresis.

Assay [3] has as its target T4, GalacTag6_GBSFerritinDK-PW-092+N-terminal helix.
T4 construct: Self-assembled ferritin nanoparticle displaying GalacTag6; also called GalacTag6_GBSFerritinDK-PW-092+ helix; GalacTag6 + GBS ferritin NP subunit from DK-092-PW w/N-terminal helix
T4 chain: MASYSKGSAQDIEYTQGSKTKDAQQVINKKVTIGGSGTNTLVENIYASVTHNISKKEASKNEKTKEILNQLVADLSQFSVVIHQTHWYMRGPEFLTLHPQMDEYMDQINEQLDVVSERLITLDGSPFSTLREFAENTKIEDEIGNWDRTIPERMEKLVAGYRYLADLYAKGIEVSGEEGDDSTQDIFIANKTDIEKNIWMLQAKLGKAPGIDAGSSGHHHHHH
The assay can be described thus: 1:1 mix with the nanoparticle, room temperature ~16 h, SDS-PAGE and HPLC-SEC (FIG. 6).

The target in assay [4] is T5, GalacTag6_GBSFerritinDK-PW-092.
T5 construct: also called GalacTag6 + GBS ferritin NP subunit from DK-092-PW
T5 chain: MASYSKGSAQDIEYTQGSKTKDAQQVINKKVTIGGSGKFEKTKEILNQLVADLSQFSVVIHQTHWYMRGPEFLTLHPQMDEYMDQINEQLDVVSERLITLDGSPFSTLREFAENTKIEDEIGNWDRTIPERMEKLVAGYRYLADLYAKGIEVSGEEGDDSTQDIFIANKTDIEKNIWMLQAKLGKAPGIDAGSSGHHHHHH
The experiment in a line: 1:1 mix with the nanoparticle, room temperature, SDS-PAGE and HPLC-SEC (FIGS. 5A, 5B).

Another assay concerns the target T6, GalacTag6_fHbp (N636A).
T6 construct: also called variant GalacTag6_fHbp
T6 chain: T3 chain with N28A
The assay can be described thus: mixed in vitro at room temperature ~16 h, SDS-PAGE (FIG. 3A).

For assay [5], the target named is T3, GalacTag6_fHbp. The assay is described as above.
Procedure: (§2) Using these variant GalacDock6 and GalacTag6_fHbp polypeptides, pairs as shown in Table 3 were mixed in vitro at a 1:1 molar ratio at room temperature for approximately 16 hours, and samples were then subjected to SDS-PAGE electrophoresis.
A further assay concerns the target T7, GalacTag5_fHbp (Neisseria meningitidis serogroup B / …, UniProt E6MV22 32-274).
T7 construct: Fusion of a GBS BP1 tag peptide with N. meningitidis fHbp variant 1.1
T7 sequence: T1 sequence with V3D, I4T, N5I, K7N, V8N, T9K, I10R
The experiment in a line: mixed in vitro at room temperature ~16 h, SDS-PAGE.

The values that follow come from patent publication US20230250142A1 (GlaxoSmithKline, published 2023).

Numbering of substitutions follows the chain as printed. In names and notes the source's numbering stands.

Procedure for GalacTag5_fHbp: as §1
Procedure for GalacTag6_fHbp (N636A): as §2
Procedure for GalacTag7_fHbp: as §1

B1: GalacDock7 with MHHHHHHS leader (designed binder)
chain: MHHHHHHSNTETKPQVDKNFADKELDYANNKKDKGTVSASVGDVKKYHVGTKILKGSDYKKLIWTDSMTKGLTFNNDIAVTLDGATLDATNYKLVADDQGFRLVLTDKGLEAVAKAAKTKDVEIKITYSATLNGSAVVEVLETNDVKLDYGNNPTIENEPKEGIPVDKKITVNKTWAVDGNEVNKADETVDAVFTLQVKDGDKWVNVDSAKATAATSFKHTFENLDNAKTYRVIERVSGYAPEYVSFVNGVVTIKNNKDSNEPTPINPSEPKVVTYGRKFVKTNKDGKERLAGATFLVKKDGKYLARKSGVATDAEKAAVDSTKSALDAAVKAYNDLTKEKQEGQDGKSALATVSEKQKAYNDAFVKANYSYEWVEDKNAKNVVKLISNDKGQFEITGLTEGQYSLEETQAPTGYAKLSGDVSFNVNATSYSKGSAQDIEYTQGSKTKDA
Regarding B1, the binding result in the assay with GalacTag7_fHbp is on record as “no binding (tested: 1:1 molar ratio)”.

B2: GalacDock6 with MHHHHHHS leader (designed binder)
chain: MHHHHHHSNTETKPQVDKNFADKELDYANNKKDKGTVSASVGDVKKYHVGTKILKGSDYKKLIWTDSMTKGLTFNNDIAVTLDGATLDATNYKLVADDQGFRLVLTDKGLEAVAKAAKTKDVEIKITYSATLNGSAVVEVLETNDVKLDYGNNPTIENEPKEGIPVDKKITVNKTWAVDGNEVNKADETVDAVFTLQVKDGDKWVNVDSAKATAATSFKHTFENLDNAKTYRVIERVSGYAPEYVSFVNGVVTIKNNKDSNEPTPINPSEPKVVTYGRKFVKTNKDGKERLAGATFLVKKDGKYLARKSGVATDAEKAAVDSTKSALDAAVKAYNDLTKEKQEGQDGKSALATVSEKQKAYNDAFVKANYSYEWVEDKNAKNVVKLISNDKGQFEITGLTEGQYSLEETQAPTGYAKLSGDVSFNVN
notes: It forms a covalent isopeptide bond with GalacTag6; also called GalacDoc6; GlacDock6
Regarding B2, the binding result in assay [1] is listed as “binds”; in the assay with GalacTag7_fHbp, “no binding (tested: 1:1 molar ratio)”; in the assay with GalacTag6_fHbp [2] it was “binds”; in assay [3] it was “binds”; in assay [4], “binds”; with GalacTag6_fHbp (N636A) it was “no binding (tested: 1:1 molar ratio)”.

B3: GalacDock6 variant E589Q (designed binder)
chain: B2 chain with E408Q
In the case of B3, the binding result with GalacTag6_fHbp [5] is “no binding (tested: 1:1 molar ratio)”.

B4: GalacDock6 variant K463A (designed binder)
chain: B2 chain with K282A
Regarding B4, the binding result in the assay with GalacTag6_fHbp [5] is given as “no binding (tested: 1:1 molar ratio)”.

B5: GalacDock6 variant E589A (designed binder)
chain: B2 chain with E408A
For the molecule B5, the binding result with GalacTag6_fHbp [5] was “no binding (tested: 1:1 molar ratio)”.

B6: GalacDock5 with MHHHHHHS leader (designed binder)
chain: MHHHHHHSNVVTDEPKTDKDVKKLGQDDAGYTIGEEFKWFLKSTIPANLGDYEKFEITDKFADGLTYKSVGKIKIGSKTLNRDEHYTIDEPTVDNQNTLKITFKPEKFKEIAELLKGMTLVKNQDALDKATANTDDAAFLEIPVASTINEKAVLGKAIENTFELQYDHTPDKADNPKPSNPPRKPEVHTGGKRFVKKDSTETQTLGGAEFDLLASDGTAVKWTDALIKANTNKNYIAGEAVTGQPIKLKSHTDGTFEIKGLAYAVDANAEGTAVTYKLKETKAPEGYVIPDKEIEFTVSQTSYNTKPTDITVDSAD
notes: Expressed in E. coli and purified on a HisTrap HP column
For B6, in the assay with GalacTag5_fHbp, the binding result was “no binding (tested: 1:1 molar ratio)”.
